According to patent publication US11969458B2, “Formula of neuregulin preparation” (Zensun (Shanghai) Science & Technology, Co., Ltd., priority 2014, dated 2024):

Assay: pH-stability profile of rhNRG-1 in pH 3 to 10 buffers and DI-water (RP-HPLC, SDS-PAGE)
Assay type: physicochemical
Conditions: for T90: time to degrade 10% of the initial concentration; for Rate of degradation: zero order, linear regression slope
Experimental: 2.1 Develop a RP-HPLC Method to Determine the Purity of rhNRG-1 Drug Substance.
RhNRG-1, batch 201204001, which contains 1.24 mg/mL rhNRG-1, 20 mM phosphate buffer and 0.5M NaCl, pH 5.5 (“API”) was used for the preparation of standard solution for all HPLC analysis.
In a 15 mL plastic tube, add the API and DI-water or a New Buffer. Mix into a solution containing 0.25 mg/mL rhNRG-1, 10 mM New Buffer, 4 mM phosphate (from the API) and 0.1 M NaCl (from the API).
For 40° C., test by SDS-PAGE after 10 days. Destain I (45% water, 45% methanol, 10% acetic acid, freshly made); 0.1% Coomasic Blue stain; The running gel (12%-15%) serves to separate individual polypeptides into discrete bands.
For 40° C., remove 150 μL and test by HPLC after 28.5, 49 and 77 hr.
For each Cone-vs-time profile, a linear regression analysis was performed and the slope of the regression equation was used to represent the rate of degradation in mg/mL/hr assuming zero order kinetics.
At each pH (3 to 8) and temperature, the estimated degradation rate and T90 (time to degrade 10% of the initial concentration or 0.025 mg/mL) are provided as follow (Table 10): […]

[1] = pH 5.63 (No New Buffer added), 40° C.
[2] = pH 5.63 (No New Buffer added), 60° C.

B1: rhNRG-1: proteins or peptides which consist of amino acid sequence of SEQ ID NO: 2 (protein, listed as Homo sapiens)
chain: SHLVKCAEKEKTFCVNGGECFMVKDLSNPSRYLCKCPNEFTGDRCQNYVMASFYKAEELYQ
In the case of B1, the “T90 at the lower pH relative to the one in its original buffer” value (lower pH (3.2) vs original buffer (pH 5.5, as is)) is reported as “about 20 ×”, the “T90 at the lower pH relative to the one at pH 4.2” value (lower pH (3.2) vs pH 4.2) is reported as “about 2 ×” and the “pH of the best stability observed” value (pH 3 to 8 study, lowest pH) is reported as 3.2. The “stability in solution depending on pH” value (pH 3 to 10) was “more stable in acid solution (PH 3.0 to 7.0) than in basic solution (PH 8.0 to 10.0)”, the “% over initial conc.” value (pH 3.19 (Sodium phosphate), 40° C., 28.5 hr) was 97% and the “% over initial conc.” value (pH 3.19 (Sodium phosphate), 40° C., 49 hr) was 97%. For the same molecule, the “% over initial conc.” value (pH 3.19 (Sodium phosphate), 40° C., 77 hr) was 96%, the “% over initial conc.” value (pH 3.19 (Sodium phosphate), 60° C., 7.5 hr) was 98% and the “% over initial conc.” value (pH 3.19 (Sodium phosphate), 60° C., 24 hr) was 93%. For the same molecule, the “% over initial conc.” value (pH 3.19 (Sodium phosphate), 60° C., 48 hr) was 89%, the “% over initial conc.” value (pH 3.19 (Sodium phosphate), 60° C., 65 hr) was 82% and the “% over initial conc.” value (pH 3.19 (Sodium phosphate), 60° C., 77 hr) was 72%. The “Initial Conc” value (pH 3.19 (Sodium phosphate)) was 0.241 mg/mL, the “T90” value (pH 3.19, 40° C.) was 10.4 days and the “Rate of degradation” value (pH 3.19, 40° C.) was 0.0001 mg/mL/h. For the same molecule, the “T90” value (pH 3.19, 60° C.) was 1.7 days, the “Rate of degradation” value (pH 3.19, 60° C.) was 0.0006 mg/mL/h and the “% over initial conc.” value (pH 4.17 (Sodium acetate), 40° C., 28.5 hr) was 97%. The “% over initial conc.” value (pH 4.17 (Sodium acetate), 40° C., 49 hr) was 97%, the “% over initial conc.” value (pH 4.17 (Sodium acetate), 40° C., 77 hr) was 93% and the “% over initial conc.” value (pH 4.17 (Sodium acetate), 60° C., 7.5 hr) was 99%. The “% over initial conc.” value (pH 4.17 (Sodium acetate), 60° C., 24 hr) was 93%, the “% over initial conc.” value (pH 4.17 (Sodium acetate), 60° C., 48 hr) was 91% and the “% over initial conc.” value (pH 4.17 (Sodium acetate), 60° C., 65 hr) was 84%. The “% over initial conc.” value (pH 4.17 (Sodium acetate), 60° C., 77 hr) was 78%, the “Initial Conc” value (pH 4.17 (Sodium acetate)) was 0.247 mg/mL and the “T90” value (pH 4.17, 40° C.) was 5.2 days. For the same molecule, the “Rate of degradation” value (pH 4.17, 40° C.) was 0.0002 mg/mL/h, the “T90” value (pH 4.17, 60° C.) was 1.7 days and the “Rate of degradation” value (pH 4.17, 60° C.) was 0.0006 mg/mL/h. For the same molecule, the “% over initial conc.” value (pH 5.08 (Sodium acetate), 40° C., 28.5 hr) was 94%, the “% over initial conc.” value (pH 5.08 (Sodium acetate), 40° C., 49 hr) was 94% and the “% over initial conc.” value (pH 5.08 (Sodium acetate), 40° C., 77 hr) was 86%. The “% over initial conc.” value (pH 5.08 (Sodium acetate), 60° C., 7.5 hr) was 98%, the “% over initial conc.” value (pH 5.08 (Sodium acetate), 60° C., 24 hr) was 92% and the “% over initial conc.” value (pH 5.08 (Sodium acetate), 60° C., 48 hr) was 93%. For the same molecule, the “% over initial conc.” value (pH 5.08 (Sodium acetate), 60° C., 65 hr) was 82%, the “% over initial conc.” value (pH 5.08 (Sodium acetate), 60° C., 77 hr) was 82% and the “Initial Conc” value (pH 5.08 (Sodium acetate)) was 0.242 mg/mL. For the same molecule, the “T90” value (pH 5.08, 40° C.) was 2.6 days, the “Rate of degradation” value (pH 5.08, 40° C.) was 0.0004 mg/mL/h and the “T90” value (pH 5.08, 60° C.) was 1.7 days. The “Rate of degradation” value (pH 5.08, 60° C.) was 0.0006 mg/mL/h, the “% over initial conc.” value (pH 5.47 (Histidine), 60° C., 7.5 hr) was 95% and the “% over initial conc.” value (pH 5.47 (Histidine), 60° C., 24 hr) was 92%. The “% over initial conc.” value (pH 5.47 (Histidine), 60° C., 48 hr) was 86%, the “% over initial conc.” value (pH 5.47 (Histidine), 60° C., 65 hr) was 79% and the “% over initial conc.” value (pH 5.47 (Histidine), 60° C., 77 hr) was 79%. The “Initial Conc” value (pH 5.47 (Histidine)) was 0.248 mg/mL, the “T90” value (pH 5.47, 60° C.) was 1.5 days and the “Rate of degradation” value (pH 5.47, 60° C.) was 0.0007 mg/mL/h. The “% over initial conc.” value (pH 5.63 (No New Buffer added), 40° C., 28.5 hr) was 92%, the “% over initial conc.” value (pH 5.63 (No New Buffer added), 40° C., 49 hr) was 91% and the “% over initial conc.” value (pH 5.63 (No New Buffer added), 40° C., 77 hr) was 38%. For the same molecule, the “T90” value [1] was 0.5 days, the “Rate of degradation” value [1] was 0.0019 mg/mL/h and the “% over initial conc.” value (pH 5.63 (No New Buffer added), 60° C., 7.5 hr) was 95%. For the same molecule, the “% over initial conc.” value (pH 5.63 (No New Buffer added), 60° C., 24 hr) was 84%, the “% over initial conc.” value (pH 5.63 (No New Buffer added), 60° C., 48 hr) was 82% and the “% over initial conc.” value (pH 5.63 (No New Buffer added), 60° C., 65 hr) was 69%. The “% over initial conc.” value (pH 5.63 (No New Buffer added), 60° C., 77 hr) was 64%, the “T90” value [2] was 1.0 days and the “Rate of degradation” value [2] was 0.001 mg/mL/h. For the same molecule, the “Initial Conc” value (pH 5.63 (No New Buffer added)) was 0.251 mg/mL, the “% over initial conc.” value (pH 6.02 (Sodium citrate), 40° C., 28.5 hr) was 94% and the “% over initial conc.” value (pH 6.02 (Sodium citrate), 40° C., 49 hr) was 94%. For the same molecule, the “% over initial conc.” value (pH 6.02 (Sodium citrate), 40° C., 77 hr) was 86%, the “% over initial conc.” value (pH 6.02 (Sodium citrate), 60° C., 7.5 hr) was 95% and the “% over initial conc.” value (pH 6.02 (Sodium citrate), 60° C., 24 hr) was 88%. For the same molecule, the “% over initial conc.” value (pH 6.02 (Sodium citrate), 60° C., 48 hr) was 85%, the “% over initial conc.” value (pH 6.02 (Sodium citrate), 60° C., 65 hr) was 72% and the “% over initial conc.” value (pH 6.02 (Sodium citrate), 60° C., 77 hr) was 72%. For the same molecule, the “Initial Conc” value (pH 6.02 (Sodium citrate)) was 0.251 mg/mL, the “T90” value (pH 6.02, 40° C.) was 2.6 days and the “Rate of degradation” value (pH 6.02, 40° C.) was 0.0004 mg/mL/h. The “T90” value (pH 6.02, 60° C.) was 1.2 days, the “Rate of degradation” value (pH 6.02, 60° C.) was 0.0009 mg/mL/h and the “% over initial conc.” value (pH 7.00 (Sodium phosphate), 40° C., 28.5 hr) was 92%. For the same molecule, the “% over initial conc.” value (pH 7.00 (Sodium phosphate), 40° C., 49 hr) was 87%, the “% over initial conc.” value (pH 7.00 (Sodium phosphate), 40° C., 77 hr) was 82% and the “% over initial conc.” value (pH 7.00 (Sodium phosphate), 60° C., 7.5 hr) was 90%. For the same molecule, the “% over initial conc.” value (pH 7.00 (Sodium phosphate), 60° C., 24 hr) was 76%, the “% over initial conc.” value (pH 7.00 (Sodium phosphate), 60° C., 48 hr) was 65% and the “Initial Conc” value (pH 7.00 (Sodium phosphate)) was 0.251 mg/mL. For the same molecule, the “T90” value (pH 7.00, 40° C.) was 1.7 days, the “Rate of degradation” value (pH 7.00, 40° C.) was 0.0006 mg/mL/h and the “T90” value (pH 7.00, 60° C.) was 0.7 days. For the same molecule, the “Rate of degradation” value (pH 7.00, 60° C.) was 0.0015 mg/mL/h, the “% over initial conc.” value (pH 8.07 (Sodium bicarbonate), 40° C., 28.5 hr) was 89% and the “% over initial conc.” value (pH 8.07 (Sodium bicarbonate), 40° C., 49 hr) was 83%. For the same molecule, the “% over initial conc.” value (pH 8.07 (Sodium bicarbonate), 40° C., 77 hr) was 68%, the “% over initial conc.” value (pH 8.07 (Sodium bicarbonate), 60° C., 7.5 hr) was 68% and the “% over initial conc.” value (pH 8.07 (Sodium bicarbonate), 60° C., 24 hr) was 4%. For the same molecule, the “Initial Conc” value (pH 8.07 (Sodium bicarbonate)) was 0.253 mg/mL, the “T90” value (pH 8.07, 40° C.) was 1.0 days and the “Rate of degradation” value (pH 8.07, 40° C.) was 0.001 mg/mL/h. The “T90” value (pH 8.07, 60° C.) was 0.2 days and the “Rate of degradation” value (pH 8.07, 60° C.) was 0.0061 mg/mL/h.
